Patent US20150024955

How the values were obtained:
[1] = target: mixture of recombinant PP1 isoforms (α, β, and γ; Upstate)

Chain of HDAC7-GFP fusion protein (Q8C2B3 whole entry, the tested form may be a part): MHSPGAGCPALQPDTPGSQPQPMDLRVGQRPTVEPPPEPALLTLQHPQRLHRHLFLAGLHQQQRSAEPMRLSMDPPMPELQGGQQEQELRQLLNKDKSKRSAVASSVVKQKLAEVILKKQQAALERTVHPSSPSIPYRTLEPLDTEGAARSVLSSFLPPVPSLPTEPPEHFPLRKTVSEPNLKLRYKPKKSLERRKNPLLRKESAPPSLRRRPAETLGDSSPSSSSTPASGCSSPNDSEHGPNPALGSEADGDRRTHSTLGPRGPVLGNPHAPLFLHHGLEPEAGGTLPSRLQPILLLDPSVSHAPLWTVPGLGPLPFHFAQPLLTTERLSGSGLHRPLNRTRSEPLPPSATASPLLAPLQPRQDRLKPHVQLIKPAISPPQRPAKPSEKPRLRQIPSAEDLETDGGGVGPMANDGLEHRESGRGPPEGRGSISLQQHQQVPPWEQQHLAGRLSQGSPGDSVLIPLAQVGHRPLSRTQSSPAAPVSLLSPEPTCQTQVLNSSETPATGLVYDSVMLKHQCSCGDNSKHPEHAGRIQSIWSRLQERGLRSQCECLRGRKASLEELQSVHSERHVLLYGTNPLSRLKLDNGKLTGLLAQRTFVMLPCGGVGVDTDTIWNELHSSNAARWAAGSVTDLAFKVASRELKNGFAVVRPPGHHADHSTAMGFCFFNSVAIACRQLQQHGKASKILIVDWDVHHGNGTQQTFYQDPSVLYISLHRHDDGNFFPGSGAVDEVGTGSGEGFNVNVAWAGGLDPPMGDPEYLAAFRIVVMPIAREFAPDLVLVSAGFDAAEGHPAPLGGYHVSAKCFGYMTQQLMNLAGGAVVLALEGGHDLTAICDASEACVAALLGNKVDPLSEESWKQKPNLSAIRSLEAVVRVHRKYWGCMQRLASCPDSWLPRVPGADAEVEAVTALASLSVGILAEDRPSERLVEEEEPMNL

B1: myosin phosphatase (complex of PP1β and MYPT1) (protein)
chain 1: ADGELNVDSLITRLLEVRGCRPGKIVQMTEAEVRGLCIKSREIFLSQPILLELEAPLKICGDIHGQYTDLLRLFEYGGFPPEANYLFLGDYVDRGKQSLETICLLLAYKIKYPENFFLLRGNHECASINRIYGFYDECKRRFNIKLWKTFTDCFNCLPIAAIVDEKIFCCHGGLSPDLQSMEQIRRIMRPTDVPDTGLLCDLLWSDPDKDVQGWGENDRGVSFTFGADVVSKFLNRHDLDLICRAHQVVEDGYEFFAKRQLVTLFSAPNYCGEFDNAGGMMSVDETLMCSFQILKPSEKKAKYQYGGLNSGRPVTPPRTANPPKKR
chain 2: MKMADAKQKRNEQLKRWIGSETDLEPPVVKRQKTKVKFDDGAVFLAACSSGDTDEVLKLLHRGADINYANVDGLTALHQACIDDNVDMVKFLVENGANINQPDNEGWIPLHAAASCGYLDIAEFLIGQGAHVGAVNSEGDTPLDIAEEEAMEELLQNEVNRQGVDIEAARKEEERVMLRDARQWLNSGHISDVRHAKSGGTALHVAAAKGYTEVLKLLIQAGYDVNIKDYDGWTPLHAAAHWGKEEACRILVDNLCDMETVNKVGQTAFDVADEDILGYLEELQKKQTLLHSEKRDKKSPLIESTANMENNQPQKAFKNKETLIIEPEKNASRIESLEHEKADEEEEGKKDESSCSSEEDEEDDSESEAETDKTKPMASVSNAHTSSTQAAPAAVTAPTLSSNQGTPTSPVKKFPISTTKISPKEEERKDESPASWRLGLRKTGSYGALAEISASKEAQKEKDTAGVMRSASSPRLSSSLDNKEKEKDNKGTRLAYVTPTIPRRLASTSDIEEKENRESSSLRTSSSYTRRKWEDDLKKNSSINEGSTYHRSCSFGRRQDDLISCSVPSTTSTPTVTSAAGLQRSLPSSTSTAAKTPPGSSSAGTQSSTSNRLWAEDSTEKEKDSAPTAVTIPVAPTVVNAAAPSTTTLTTTTAGTVSEVRERRRSYLTPVRDEESESQRKARSRQARQSRRSTQGVTLTDLQEAEKTIGRSRSTRTREQENEEKEKEEKEKQDKEKQEEKKESEASREDEYKQKYSRTYDETYTRYRPVSTSSSSAPSSSSLSTLGSTLYASSQLNRPNSLVGITSAYSRGLAKENEREGEKKEEEKEGEDKSQPKSIRERRRPREKRRSTGVSFWTQDSDENEQERQSDTEDGSSKRETQTDSVSRYDSSSTSSSDRYDSLLGRSASYSYLEDRKPYSSRLEKDDSTDFKKLYEQILAENEKLKAQLHDTNMELTDLKLQLEKATQRQERFADRSQLEMEKRERRALERRISEMEEELKMLPDLKADNQRLKDENGALIRVISKLSK
nuclear exclusion of HDAC7-GFP after siRNA knockdown of myosin phosphatase subunits (immunofluorescence microscopy) (HDAC7-GFP fusion protein): HDAC7 nuclear re-entry was significantly delayed at later time points

B2: FLAG-tagged human HDAC7, phosphorylated (from DO11.10-HDAC7-Flag cells treated with PMA or anti-CD3) (protein)
chain: MDLRVGQRPPVEPPPEPTLLALQRPQRLHHHLFLAGLQQQRSVEPMRLSMDTPMPELQVGPQEQELRQLLHKDKSKRSAVASSVVKQKLAEVILKKQQAALERTVHPNSPGIPYRTLEPLETEGATRSMLSSFLPPVPSLPSDPPEHFPLRKTVSEPNLKLRYKPKKSLERRKNPLLRKESAPPSLRRRPAETLGDSSPSSSSTPASGCSSPNDSEHGPNPILGSEADSDRRTHPTLGPRGPILGSPHTPLFLPHGLEPEAGGTLPSRLQPILLLDPSGSHAPLLTVPGLGPLPFHFAQSLMTTERLSGSGLHWPLSRTRSEPLPPSATAPPPPGPMQPRLEQLKTHVQVIKRSAKPSEKPRLRQIPSAEDLETDGGGPGQVVDDGLEHRELGHGQPEARGPAPLQQHPQVLLWEQQRLAGRLPRGSTGDTVLLPLAQGGHRPLSRAQSSPAAPASLSAPEPASQARVLSSSETPARTLPFTTGLIYDSVMLKHQCSCGDNSRHPEHAGRIQSIWSRLQERGLRSQCECLRGRKASLEELQSVHSERHVLLYGTNPLSRLKLDNGKLAGLLAQRMFVMLPCGGVGVDTDTIWNELHSSNAARWAAGSVTDLAFKVASRELKNGFAVVRPPGHHADHSTAMGFCFFNSVAIACRQLQQQSKASKILIVDWDVHHGNGTQQTFYQDPSVLYISLHRHDDGNFFPGSGAVDEVGAGSGEGFNVNVAWAGGLDPPMGDPEYLAAFRIVVMPIAREFSPDLVLVSAGFDAAEGHPAPLGGYHVSAKCFGYMTQQLMNLAGGAVVLALEGGHDLTAICDASEACVAALLGNRVDPLSEEGWKQKPNLNAIRSLEAVIRVHSKYWGCMQRLASCPDSWVPRVPGADKEEVEAVTALASLSVGILAEDRPSEQLVEEEEPMNL
in vitro dephosphorylation assay (30 minutes at 30° C.), Western blot with phospho HDAC7 antibodies [1]: recombinant PP1 treatment totally abolished the reactivity to the different phospho HDAC7 antibodies
